The values that follow come from US9599605 (BOSTON MEDICAL CENTER, dated 2017).

Experiment [1] deals with Endogenous mouse STIM1 (mouse) (UniProt P70302). The experiment is described as follows: cell-based or functional assay.
Experiment [2] has as its target T1, Endogenous STIM1 from extracts of Jurkat T lymphocytes (human, UniProt Q13586 23-685).
T1 construct: Prey protein in a cell lysate, detected by Western blot
The experiment is described as follows: pull-down on SNAP-immobilized bait, Western blot. As to the method: (§1) A: with full-sized original images of immunoblots (B and C).
(§2) The cells were harvested 48 h after transfection, lysed on ice in lysis buffer (25 mM Tris-HCl, pH 7.5, 150 mM NaCl, 0.5% NP-40, 5% glycerol, 2 mM DTT, 1×HALT Protease inhibitors cocktail (Pierce), 1 mM PMSF) and the extracts were cleared by centrifugation for 15 min at 16,000 g at 4° C. Each SNAP-tagged protein was covalently immobilized by incubating ~800 µL of the extract with 25 µL bed volume of SNAP Capture Resin (New England Biolabs), equilibrated with Resin Wash Buffer (RWB; 25 mM Tris-HCl, pH 7.5, 150 mM NaCl, 5% glycerol), for 16 h at 6° C. Control sample of each extract was incubated under the same conditions in the absence of the resin. Following immobilization, the resin was collected in the mini spin column (Pierce), washed 5 times on ice with 600 µL of RWB, combined with the prey protein extract, and incubated with orbital mixing at ~600-800 rpm for 6 h at 4° C.

Experiment [3] addresses T2, Overexpressed ^YFPSTIM1 from extracts of FreeStyle 293-F cells (UniProt Q13586 23-685).
T2 construct: not shown: YFP of the YFPSTIM1 construct (gift from Dr. T. Meyer)
Description: pull-down on SNAP-immobilized bait, Western blot. As for the experimental part:
as §1, §2

Endogenous mouse STIM1 (mouse), sequence (P70302 23-685 limits assumed): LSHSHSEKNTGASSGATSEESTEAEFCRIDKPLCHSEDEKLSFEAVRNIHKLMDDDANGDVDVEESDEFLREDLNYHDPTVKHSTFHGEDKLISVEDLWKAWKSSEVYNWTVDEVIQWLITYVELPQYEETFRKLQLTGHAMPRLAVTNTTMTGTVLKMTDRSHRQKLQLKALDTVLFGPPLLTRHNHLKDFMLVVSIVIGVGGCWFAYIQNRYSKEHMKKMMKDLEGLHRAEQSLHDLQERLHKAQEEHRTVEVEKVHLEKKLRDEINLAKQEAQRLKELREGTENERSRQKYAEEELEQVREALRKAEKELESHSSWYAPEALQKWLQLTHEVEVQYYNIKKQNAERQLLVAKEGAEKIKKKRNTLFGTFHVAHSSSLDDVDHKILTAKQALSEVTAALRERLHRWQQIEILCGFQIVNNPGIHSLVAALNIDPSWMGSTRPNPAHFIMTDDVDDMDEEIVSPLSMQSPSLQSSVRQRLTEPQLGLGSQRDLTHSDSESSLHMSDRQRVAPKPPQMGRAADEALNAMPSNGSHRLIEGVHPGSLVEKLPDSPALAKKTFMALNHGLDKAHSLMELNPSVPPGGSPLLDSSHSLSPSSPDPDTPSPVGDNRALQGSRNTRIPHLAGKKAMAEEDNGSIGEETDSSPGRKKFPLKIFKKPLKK
T2 sequence (Q13586 23-685): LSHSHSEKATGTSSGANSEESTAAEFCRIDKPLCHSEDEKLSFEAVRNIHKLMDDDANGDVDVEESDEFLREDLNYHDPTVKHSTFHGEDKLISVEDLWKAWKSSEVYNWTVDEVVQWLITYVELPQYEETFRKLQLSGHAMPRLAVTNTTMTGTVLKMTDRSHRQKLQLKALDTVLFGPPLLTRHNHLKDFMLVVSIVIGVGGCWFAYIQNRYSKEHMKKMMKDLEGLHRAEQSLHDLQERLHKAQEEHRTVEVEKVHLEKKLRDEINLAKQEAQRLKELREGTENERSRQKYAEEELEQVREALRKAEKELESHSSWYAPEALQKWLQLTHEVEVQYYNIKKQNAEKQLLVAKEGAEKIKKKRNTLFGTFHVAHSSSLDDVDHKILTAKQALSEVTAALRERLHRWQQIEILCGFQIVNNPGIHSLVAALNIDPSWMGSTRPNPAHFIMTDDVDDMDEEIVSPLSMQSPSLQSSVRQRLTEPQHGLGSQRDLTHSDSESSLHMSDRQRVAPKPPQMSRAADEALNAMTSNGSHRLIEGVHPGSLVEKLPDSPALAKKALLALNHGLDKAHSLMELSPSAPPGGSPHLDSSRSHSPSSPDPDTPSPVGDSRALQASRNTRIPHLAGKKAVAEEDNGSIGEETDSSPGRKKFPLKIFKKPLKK
T1 sequence (Q13586 23-685 limits assumed): as the sequence (Q13586 23-685) above

Regarding “N-terminally truncated endogenous mouse PLA2g6(L) of KO^Ex2 mice (from UniProt P97819 179-807) (enzyme)”, in experiment [1], the peak of Ca^2+ release caused by ionomycin in MEFs from KO^Ex2 mice compared to WT came out at 60%.

B1: C-terminally SNAP-tagged N-terminally truncated human PLA2g6(L)^179-806 (enzyme)
chain: MDVTDYKGETVFHYAVQGDNSQVLQLLGRNAVAGLNQVNNQGLTPLHLACQLGKQEMVRVLLLCNARCNIMGPNGYPIHSAMKFSQKGCAEMIISMDSSQIHSKDPRYGASPLHWAKNAEMARMLLKRGCNVNSTSSAGNTALHVAVMRNRFDCAIVLLTHGANADARGEHGNTPLHLAMSKDNVEMIKALIVFGAEVDTPNDFGETPTFLASKIGRLVTRKAILTLLRTVGAEYCFPPIHGVPAEQGSAAPHHPFSLERAQPPPISLNNLELQDLMHISRARKPAFILGSMRDEKRTHDHLLCLDGGGVKGLIIIQLLIAIEKASGVATKDLFDWVAGTSTGGILALAILHSKSMAYMRGMYFRMKDEVFRGSRPYESGPLEEFLKREFGEHTKMTDVRKPKVMLTGTLSDRQPAELHLFRNYDAPETVREPRFNQNVNLRPPAQPSDQLVWRAARSSGAAPTYFRPNGRFLDGGLLANNPTLDAMTEIHEYNQDLIRKGQANKVKKLSIVVSLGTGRSPQVPVTCVDVFRPSNPWELAKTVFGAKELGKMVVDCCTDPDGRAVDRARAWCEMVGIQYFRLNPQLGTDIMLDEVSDTVLVNALWETEVYIYEHREEFQKLIQLLLSP
modifications: covalently immobilized on SNAP Capture Resin through the SNAP tag ; Covalently immobilised on SNAP Capture Resin through the C-terminal SNAP tag, which is not in the letters
notes: Mimics the N-terminally truncated protein expected in KO^Ex2 mice; not shown: C-terminal SNAP tag and the vector linker of pSNAP-tag(m) (New England Biolabs)
As for B1, the binding result in experiment [2] and in experiment [3] was “no binding” each time.
